The values below come from a protein production outcome set (Wang et al. 2014).

The data set in a line: label from the status in PepcDB records.
Take “MIAISSLLGLVVRSFYFLLPDYRAADTWFHASKVKMIISTGTVYFSHVPGYFSAQIIKYPPGYHALIALLSGFKGENIIYGMNSLRIFEILYLPALAYLVGREIRREIGIFAALLTNFSALYYYFVQYALLPAFTNYMIFLLSVYFLEVAMRDRGIKISIMLGITSGIMAVVHPYQYILFQATAFFTTILSKNRKVFLTQLILSASVFLVFTPFSTEYAVKGILMNPRFSNKDNPNFLISILRYSFVDNGQILFGLSLILALILSLMRGGSIEKGLSLSFLLIIFMMLDKTYLNIRIPYLSAVWNSERAFMLTTPLIPILEGIGLNYIFKVKKELAAIFLVVGMMISYPYLRIEHLASESSYLLDPEVVDFIKEVSRIAGNETVMTACEFDSGRWIPILTETPIVCYSKNISEARYLYVDTRGAGEIEVYPINIVNFLDRRVVLFRDGLWLLDLNKHGKPTGDVLSYYHTNGTISYIKDTKWFVYGWVNKNYATMKLRLKGFPYAIMIVNTSSILFSTSESFDRIEIRISGKKGRALEIYLDGEFIKRYEFKTEYGDERIVLKVRVDPGMHYLILYSPNTTYKIPIGVKEIMLKREGP”: the protein production entry is “failed”.

With “MIAMILVHPHIFWLSLGGLLLAAEMLGGNGYLLWSGVAAVITGLTVWLLPLGWEWQGVLFAALTLLAAWLWWRWLARRVREQKPTDSRLNQRGQQLVGRRFMLDAALVNGRGHMRVGDSSWPVCADEDLRAGTHVEVIAVEGITLRIRAV”, the protein production entry is “failed”.

As for “MIATLRSYLSADKRGLVGPAFLFLSLLASISDPFGGYGMTFLRRFLFWVLVLGVAGGIAFLSHRMVERHLSGAPLLGKDLLIVLLVTLSFTPSLWVLIFLFAAPSTGTAPDMWSMARYGTIFASGLIVLRRGVFGQSVPEEESLQPRIYKRLPEGFSEQILRLTVRDHSVDVVTDKGVHTIRSRFGDAIDEMVPISGHCTHRSHWVTDTAIESVERSGGKIHLRLSNGDLIPVSRKYRPALEEAGIV”, the protein production result is reported as “failed”.

“MICTPKVGLNNQLTKVQFFMTKYNFLFKQQVIEFYLQNDKNSSLTRRHFQLAETTLERWINQFNHSGINGLALLGKKRNYSPEFKLNVIQAVKNGKFSAEAACLHFGIANSGVVSQWLQAFEKQGINGLIPKPKGRPTMKLQYPKMPPKPKTREEELELENLRLRAENAILKKLQELNQQKMQKKPLSLEHHHHHH”: the protein production result is “failed”.

With “MIDFLDVQKETPRIRIAIDRVGVKNIKFPLKIHDDFAFLTLNLFVDVPADRKGADMSRAVESIQKVINAGSYGERIGDIGIAICDEALSRFNYSEKAQCEVNIQYYRRSGERYLEYRMYVETAKDRKQIMKNEIGISYVTMTACPCAMETTRALISMDNPDISDAISAIPTITHNQRNVTKLTVDNRSKMITVWDLADVMERVQGKPLDSLLKRVEEGRLVYSAHRNPKFVEDVVREIAYEAARVLGVPDEATIKVSSESDESIHPHNAYAEIDTTAGELRKLHLH”, the protein production result is reported as “not failed”.

As to “MIDFNDIPQPEAQDRQARREEIRAALLARLESVLFALLPAGKKRGGKFLIGDVLGSPGDSLEVVLDGEKAGLWTDRATGDGGDIFGLIAAHLGADVHADFPRVLDVAADLVGRAHPAPPRKARSAPPVDGLGPATAKWDYFDPAGKLIAVVYRYDPPGRKKEFRPWDARRRKMAPPEPRPLYNQPGLVAADTVVLVEGEKCAQALIDIGVAATTAMHGANAPVDKTDWSPLAGKAVLIWPDRDKPGWEYAMAAAQAALAVGAMSCDVLLPPDDRSEGWDAADAVAEGFDVAGFLAFGPRMSIKPASVTPTQEPSVWATDDALALAFTSRYAEDWRYCAAWGKWLVWDGRRWQADETLLVHHLIRAICREAALKADSHRLAAKLAASSTVGGVERLARTDRRHASTSEEWDADLFALNTPSGIVDLKTGRIKPHDRRERMTKLATATPHGDCARWRAFLEDITGGDTALQAYLQRMVGYCLTGATSAHALFFLYGTGANGKSVFVNTLATILGDYATSAPMDTFMEARGDRHPTDLAGLRGARFVSSIETEQGRRWNESKVKAITGGDKVSARFMRQDFFEYLPQFKLVIAGNHKPAIRNVDEAMKRRLHLIPFTVTIPPEKRDGQLTEKLLAERDGILAWAVEGCLAWQRDGLNPPASVVSATEEYFDEEDAIGDFLDEEAQRFEQARVAVADVFQRWQEWATRRGEYVGTSRWLAQQLANRGFGRARLHGGVKGLAGLSLKPRDYGTRLPYRDD”, the protein production result is “failed”.

On to “MIDGNSIIVSSPEVAFPIAVRYAWADNPICNLYNGVNLPASPFRTDDWQGILMVINRYSCFDLPSEIDVTHKKITMNKLIYLVIFSFLSTSIYAQMKDLVQYVNTLQGTDSHFGLSYGNTYPTTGMPYAMHTWSAQTGKNGEGWKYQYAVDNIRGFCQSHQCSPWMSDYAVYSFMPMVGKLVVNQEMRATKFSHDNEIAKPHYYKVMLDNGITTEMAPTTRGVHLRFSYPSTEDAYLVIDGYTDMSEIKIDPAKRQISGWVNNQRFVNNSKTFRSYFVVQFDKAFEDYGMWENQKDEIYPKKLEGEGKGYGAYIKFKKGSKVQAKAASSYISAEQAVITLNDELGKDKNLEATKIRGHKTWNELLNRIQVEGGTDEQMKTFYSCLFRANLFSRKFYERKANGEPYYYSPYDGKVYDGYMYTDNGFWDTFRSQFPLTNILHPTMQGRYMNALLAAQEQCGWLPSWSAPGETGGMLGNHSISLLADAWAKGIRTFDPEKALKAYAHEAMNKGPWGGANGRGFWKEYFELGYVPYPESMGSSAQTMEYAYDDFCGYQLAKMTGNKHYQEVFARQMYNYKNVFDPSIGFMRGKGVDGKWQEPFDPLEWGGPFCEGNAWHYTWSVFHDVEGLIDLFGSDQRFTTKMDSVFTLPSTIKPGTYGGVIHEMKEMELSGMGQYAHGNQPIQHMPYLYSYAGQPWKTQYWVRQIVERLYNSTERGYPGDEDQGGMSSWYILSSLGIYAVCPGTDEYVIGSPLFKKATITMENGNKFVIEANNNSKENLYIQSATLNGRVLDKNFIRYDDIADGGIIRFEMGSQPNKERCTSKYAAPFSLSKE”, for which the protein production entry is given as “failed”.

“MIDHRPTSWSRLCTALTSGASCTIGGQAVMEGVMMRNGDRLAIAMRRPDGEIVAESRPWFSLTRSAWLKRPFVRGFPILVETLVNGIKALNRSAEQAVEGETGEELKPWQLAATLAVSVAMALGLFVVVPHLFSIGMKLLGLGGDVEGLSFHMWDGFFKFAVFIGYIVAISFVPDIRRVFQYHGAEHKVIRAFEAAGDVTPDTAMHHSRLHPRCGTTFLLFVLSISIILHAVLVPLLMLVWTPSGAFAKHGVTVLFKLLLMIPISALAYETIRYAARLGEGLTGTLLRAPGMLLQKLTTGEPDREQLEVAIVALREALGDDAPQSVRAPAYRHLE”: the protein production entry was “failed”.

Regarding “MIDKREVLAPNRRSRQREEIVAEEKRYEVYFQPLLSGVEVKKSNEIKIVLPQQEYNRIEQGAKGTLRLQGTRYISFVPNSVAKLEHHHHHH”, the protein production result is recorded as “not failed”.

On to “MIDLAVLPIYLTAVIALLLLPGPDMLLIASSSMSYGRKVGLFASLGNATSGLILTLLAAMGVSTLIAMSPVALKVLHLLGGAYLLKMGWDCLRAEASSAPELDQKNKMASTYYQRALMSNLLNPKALVFFVMFLPQFVSSNITASSGEQMLALGLLLNVLGLLFNLLLVALAGTLGKGLLENEKFRTYQHKLMGLVFVILALWMLSSFVL”, for which the protein production result is “failed”.

With “MIDMEQDNRNQINGENISNASAGGTQPEQNTQSSQNMHPEQTGQGTQQDSLYHYSYMNNKGDARFDRPAGETSQQRMGAQTQNMRETANVQGGTQNTAYSGFQRNVNGMEAWYDSQRMNAGYQNPENNVGGYGQGSQSVPHKTETSHKHEKQPKPKKNSGKKSGVGKKVAGVVAAAVVFGLVAGVVFQGVRYGSDKMLNKNSATTEASADATTENNAPQLKQASSDATNTVYDVATVAQKVMPSIVSITGTYVTTYDYWFNSYQQESTGAGSGIIIGKDDQYLYLATNYHVVQNAKSLSVTFVNDKSADATVKGYVENNDIAVVTVKLADISDDTLNEIKEIQVGSSDDLSVGDPCVAIGNALGYGQSVTVGYISALNREISASDETVKVLQTDAAINPGNSGGALVNMQGELIGINTAKYSDTSVEGMGYALPISDIQDIINDLIAGKKVASDGTASGQAYLGISAQTITSQYSQLLNMPEGVYISSVEQGSAAEECGLQSGDIICSLDGEDIADMDTFHDRIVACKPGDKVTIVYYRNNNGNYEKQTTTATLQEKQ”, the protein production result is given as “failed”.

For “MIDPRPVGYILGLLVATLGALMLVPMALDLAAGDRHWLSFAETATITTVAGSMLALACANGRGQGTGLSLQQSFLLTTGAWVLLPVFGALPFMMGRPDASFTDAVFEAMSGFTTTGTTVFVGLDALPLGTNLWRGMLQWLGGLGIVIVAMIFLPVMKVGGMQFFRSEGFDTLGKILPRALDISTALIQIYLVLTMACVMTFLALGIPLFEAVVHALTTVSTGGFSSSDRSFGLFQGPAEYACAFFMVLASLPFVRFVQLAQGTFLPLWRDPQVRAYLRWNGYAIGLIVAYEVVTRNAPVLPTLRETTFNVISTFSGTGFSSVDLGLWGTFPFVLLIVVGLIGGCTSSTGCSVKVFRYLILLEAIKVQIRRLQSPSAVIFVDYEGRRVGEDVINSVILFFTMFILSFGVLAVLLSLTGLQTKTAITAAWTAIANVGPAFGPEVSATGAVDRFPAVAKWLMIGGMLVGRLELLSVFVLLTPRFWRS”, the protein production entry is recorded as “failed”.

For “MIDRPLEGKVAFITGAARGLGRAHAVRLAADGANIIAVDICEQIASVPYPLSTADDLAATVELVEDAGGGIVARQGDVRDRASLSVALQAGLDEFGRLDIVVANAGIAMMQAGDDGWRDVIDVNLTGVFHTVQVAIPTLIEQGTGGSIVLISSAAGLVGIGSSDPGSLGYAAAKHGVVGLMRAYANHLAPQNIRVNSVHPCGVDTPMINNEFFQQWLTTADMDAPHNLGNALPVELVQPTDIANAVAWLASEEARYVTGVTLPVDAGFVNKR”, the protein production entry is reported as “not failed”.

For “MIDVIGTDAGAPASLPAAQQALIRAAEQIAAPRRLQPALETWLESPVPLIDSDDPRHLVEVLSALSAQTNAVVLASGDPLWFGIGRILAERLGPERLRFHPAPTSLQLAFARIGRPWQDARWVSLHGRDPEPLARELQTRPRALAVLTDPGRGGADAVRRCLRSSGLEASYQLWLGENLGHADERMRLIPADAPLPEPLQPLLVALLIAEEPSIPNSRALPLFGLEDGLYLQHPDHPGLMTKREARIQLLADLDLPDQGVLWDLGAGTGSIGLEALRLRPQLRLLAVERRAGGAALIQANAKRLEVMPSAVVETDALSLLSADLPDGLDQPDRVLLGGGGPHREALLKAVLQRLRPSGIVVIPLATLEAVATLRPLMEQSGLTVQLNQLQAWRGQPLSDGTRLAPMNPILSLKGT”, the protein production result is “failed”.

With “MIDVPFLKNVTLKKENIPSFSAYPYCLPAIRTLQSLAFHPNVTFIIGENGTGKSTLLEGIAIALGFNAEGGTKNFRFSTNDSHSSLHEYLRISKSFNTPSDGFFLRAESFYNVASYIDEIDADLEARGNPVIDSYGGISLHEQSHGESFFSLFMNRFSGQGLYILDEPEAALSPMRQLSMLIRMHELAEQGSQFVIATHSPILMAYPESTIYSLTQEGIQESALEDTEHYQTTKLFFENRDRLFHHLFNSLEHHHHHH”, the protein production entry is on record as “not failed”.

Consider “MIDWPLAELLPHAGDMILIDQVLAFDEEQIRTRLEVRPGGLFNRPDGSLPAWVGVELMAQSVAAYAGCRARQQGLPVELGFLLGTRKFECNVEHFPLGSTLEIHALRSLEDDNGMGVFECHLSGPGITASARLNVFRPPQAADYLHETPASSTGTPS”, for which the protein production result is “failed”.

For the sequence “MIEIKNVNKVFYQGSKEILALKDINLHIAKGTIFGVIGSSGAGKSTLIRCVNMLEAPSSGSIIVDGVDLTTLSKKQLVETRRNIGMIFQHFNLLSSRTVFDNVALPLELAGKDKSQITTKVTELLKLVGLADKHESYPSNLSGGQKQRVAIARALASDPSVLLCDEATSALDPATTQSILELLKEINRKLNITILLITHEMEVVKSICHEVAIIGGGELVEKGTVGDIFAHPKTELAHEFIRSTLDLSIPEDYQARLQPNRVEGSYPLVRMEFTGATVDAPLMSQISRKYNIDVSILSSDLDYAGGVKFGMMVAELFGNEQDDSAAIEYLREHNVKVEVLGYVL”, the protein production result is “not failed”.
